Experimental data taken from patent US8629107B2, “Genes and proteins associated with angiogenesis and uses thereof” (National Jewish Health, priority 2005, dated 2014).
Entries after “also recorded” stand apart in the source; their conditions may differ.

Assays:
[1] = system: Hes1 promoter (Notch1 signaling); test: Hes1-driven luciferase reporter gene assay in MB114 cells; type: cell-based, murine
Description: (§1) The effect putative angiogenic agents had on MB114 cell activities were determined as follows: (i) cell proliferation using a [^3H]thymidine incorporation assay as described (Albig et al, 2006; Albig and Schiemann, 2004; Albig and Schiemann, 2005); (ii) cell invasion through Matrigel matrices using a modified Boyden-chamber assay as described (Albig et al, 2006; Albig and Schiemann, 2004; Albig and Schiemann, 2005); (iii) p38 MAPK phosphorylation using immunoblot analyses as described (Albig et al, 2006; Albig and Schiemann, 2004; Albig and Schiemann, 2005); (iv) angiogenic sprouting in rat tail collagen matrices as described (Albig et al, 2006; Albig and Schiemann, 2004); and (v) Hes1- and SBE-driven luciferase reporter gene assays as described (Albig et al, 2006; Albig and Schiemann, 2004; Albig and Schiemann, 2005).
MAGP-2 can interact physically with Notch1 and its ligand, Jagged-1 (Miyamoto et al, 2006; Nehring et al, 2005), resulting in the ectodomain shedding of both molecules from the cell surface. Notch signaling also plays an essential role in regulating normal vessel development and angiogenesis in mammals (Leong and Karsan, 2005; Shawber and Kitajewski, 2004). Given these two facts, the inventors hypothesized that MAGP-2 promotes angiogenesis by modulating Notch1 signaling. To test this hypothesis, first measured were changes in luciferase expression driven by a Hes1-luciferase reporter gene whose expression is induced by Notch1 activation (Iso et al, 2003). MB114 and HUVEC cells were transiently transfected either with pHes1-luciferase, pCMV-β-gal, and MAGP-2 cDNAs, or with pHes1-luciferase and pCMV-β-gal cDNAs and subsequently stimulated with rMAGP-2 (1 or 5 mg/ml). Afterward, luciferase and β-gal activities contained in detergent-solubilized cell extracts were measured. In addition, GFP- and MAGP-2-expressing MB114 cells were transiently transfected with pHes1-luciferase and pCMV-β-gal cDNAs, together with or without Jagged-1 cDNA as indicated. Afterward, luciferase and β-gal activities were measured as above.
To further investigate the impact of MAGP-2 on Notch1 processing and NICD accumulation, the inventors took advantage of recent findings showing that the ability of TGF-β to induce Hes1 promoter activity requires Smad3 to interact physically with NICD (Blokzijl et al, 2003), a reaction that is dispensable for canonical Smad3-mediated signaling stimulated by TGF-β (Blokzijl et al, 2003). It was therefore reasoned that the ability of MAGP-2 to inhibit NICD production in ECs would reduce the capacity of TGF-β to induce luciferase expression driven by the Hes1 promoter, but not that driven by the synthetic Smad2/3-binding element (SBE). GFP- and MAGP-2-expressing MB114 cells were transiently transfected with either pHes1- or pSBE-luciferase, both together with pCMV-β-gal as indicated in FIG. 4B. Afterward, the resulting transfectants were stimulated overnight with increasing concentrations of TGF-β1 (0-5 ng/ml).
Based on the findings described in the Examples above, the inventors hypothesized that MAGP-2 promotes angiogenesis by antagonizing Notch1 signaling. To test this hypothesis, it was first determined whether inhibiting Notch signaling in MB114 cells would enhance their angiogenic sprouting. […] Afterward, luciferase and β-gal activities were determined. […]

MB114 cells = test: angiogenic sprouting in rat tail collagen matrices; type: cell-based, murine
Description: as §1
Finally, it was determined whether expression of these putative angiogenic factors could effect the angiogenic sprouting of quiescent MB114 cells monolayers. MB114 cells expressing either GFP or various putative angiogenic agents were grown to confluency, and subsequently were overlaid with rat tail collagen matrices. Angiogenic sprouting by quiescent EC monolayers was stimulated by inclusion of 10% FBS and allowed to proceed for 5 days. The quantity of invading angiogenic sprouts was determined by manual counting under a light microscope.
Based on the findings described in the Examples above, the inventors hypothesized that MAGP-2 promotes angiogenesis by antagonizing Notch1 signaling. To test this hypothesis, it was first determined whether inhibiting Notch signaling in MB114 cells would enhance their angiogenic sprouting. In doing so, MB114 cells were transiently transfected with the Hes1-luciferase reporter gene (and pCMV-β-gal cDNA as control), and subsequently were treated overnight with or without the highly specific gamma-secretase inhibitor, DAPT (Sastre et al, 2001), which inhibits S3-mediated cleavage of Notch1 and, consequently, NICD-mediated induction of Hes1 expression. Afterward, luciferase and β-gal activities were determined. […] In this experiment, quiescent MB114 cell monolayers were overlaid with rat tail collagen matrices, and were induced to form angiogenic sprouts by addition of 10% FBS supplemented with or without DAPT (10 μM). Five days later the number of invading angiogenic spouts were quantified by manual counting on a light microscope. Based on these findings, the inventors conclude that Notch activation functions in mediating angiostasis in MB114 cells. […] Collectively, these findings indicate that Notch1 signaling antagonizes angiogenic sprouting in MB114 cells, and that downregulation of Notch1 signaling components is necessary for angiogenesis activation in MB114 cells.
Having shown that Notch1 signaling mediates angiostasis in MB114 cells, the inventors next asked whether MAGP-2 promotes angiogenesis in MB114 cells via its ability to antagonize Notch signaling. To do so, MAGP-2-expressing MB114 cells were engineered to constitutively express active Notch1 NICD fragment in an attempt to overcome the block of Notch processing mediated by MAGP-2. More particularly, GFP-, MAGP-2-, and MAGP-2/N1ICD-expressing MB114 cells were transiently transfected with pHes1-luciferase and pCMV-β-gal cDNAs. Luciferase and β-gal activities were determined 48 h post-transfection. As the inventors observed previously, MAGP-2 expression reduced Hes1-luciferase activity in MB114 cells (FIG. 5C), a reaction that was bypassed by co-expression of NICD in these cells (FIG. 5C). […] In this experiment, quiescent monolayers of GFP-, MAGP-2-, and MAGP-2/N1ICD-expressing MB114 cells were overlaid with rat tail collagen matrices and incubated in the absence or presence of 10% FBS for 5 days. Afterward, the number of invading angiogenic sprouts were determined by manual counting under a light microscope.

[2] = system: Hes1 promoter (Notch1 signaling); test: Hes1-driven luciferase reporter gene assay in HUVEC cells; type: cell-based, human; parameters: dose or concentration left out as unconfirmed
Description: as §1
MAGP-2 can interact physically with Notch1 and its ligand, Jagged-1 (Miyamoto et al, 2006; Nehring et al, 2005), resulting in the ectodomain shedding of both molecules from the cell surface. […] To test this hypothesis, first measured were changes in luciferase expression driven by a Hes1-luciferase reporter gene whose expression is induced by Notch1 activation (Iso et al, 2003). […] Afterward, luciferase and β-gal activities contained in detergent-solubilized cell extracts were measured. […] Afterward, luciferase and β-gal activities were measured as above. […]

B1: MAGP-2: secreted glycoprotein (25 kDa); stably expressed in MB114 cells by bicistronic retroviral transduction, Myc-His tagged (protein)
chain: QRGDDVPETFTDDPNLVNDPSTDDTALADITPSTDDLAGDKNATAECRDEKFACTRLYSVHRPVRQCVHQSCFTSLRRMYIINNEICSRLVCKEHEAMKDELCRQMAGLPPRRLRRSNYFRLPPCENMNLQRPDGL
modifications: left off: small tags and cut ends
notes: secreted glycoprotein (25 kDa); stably expressed in MB114 cells by bicistronic retroviral transduction, Myc-His tagged
In the case of B1, the “ability of Jagged-1 to induce Hes1-luciferase activity” value ([1]; MAGP-2-expressing vs GFP-expressing MB114 cells, with Jagged-1 cDNA) is reported as “abrogated”, the “ability of TGF-β to stimulate Hes1-luciferase activity” value ([1]; MAGP-2-expressing vs GFP-expressing MB114 cells, TGF-β1 0-5 ng/ml overnight) is reported as “significantly decreased” and the Hes1-driven luciferase activity ([1]; MAGP-2 expression in MB114 cells) is reported as “repressed; also recorded: reduced”. The “angiogenic sprouting of quiescent MB114 cell monolayers” value (MB114 cells; MB114 cells stably expressing the transgene vs GFP, 10% FBS, 5 days) was “significantly increased” and the Hes1-driven luciferase activity ([2]; MAGP-2 expression in HUVEC cells) was “repressed”.

B2: rMAGP-2: recombinant FLAG-tagged MAGP-2 purified from bacterial cell extracts by anti-FLAG chromatography (protein, UniProt Q9QZJ6 29-164, looked up)
Microfibrillar-associated …: B1 chain
modifications: FLAG tag
notes: recombinant FLAG-tagged MAGP-2 purified from bacterial cell extracts by anti-FLAG chromatography
With B2 the Hes1-driven luciferase activity ([1]; MB114 cells stimulated with recombinant protein, 1 or 5 mg/ml) was “repressed”, the “angiogenic sprouting of quiescent MB114 cell monolayers” value (MB114 cells; purified recombinant protein added, 1 μg/ml) was “stimulated” and the Hes1-driven luciferase activity ([2]; HUVEC cells stimulated with recombinant protein) was “repressed”.
